By Km is commonly meant the substrate concentration at which the rate is half of its maximum. Broadly, the kcat is the number of substrate molecules converted per active site and unit of time at saturation. Usually kcat/Km stands for the turnover number divided by the Michaelis constant.

Experimental findings from paper PMC5501786 are described below.

Substrate in this data set: O=P(O)(O)O[C@H]1O[C@H](CO)[C@@H](O)[C@H](O)[C@H]1O
The experiment in a line: purified protein. The settings on record: synthetic direction, glucosyl donor 0.5-10 mM, 20 mM D-glucose, 1 mM MgCl2, 10 mM DTT, Tris-HCl pH 7.5, 60 °C.

Excerpt: Pi release from G-1-P, molybdate assay, Hanes-Woolf plot on TaCDP (initially TaCBP; THA_1941)

B1: TaCDP (initially TaCBP; THA_1941) (Thermosipho africanus TCF52B) (protein)
chain: MKKFDFVIENYSKQKLFSSFLPGIAGKNGIPLWVFYVNRGQCIASFGIENKANSILEFKPAGQSHTDTPLKGFRTFIKVDGRYYEPFSELTNFKREMRINKNSLEIEERNNELGLKVKVIYFVLPNEDFAALVRRVEIENEDKYEKHIEIIDGLPEVIPYGVSNGLYKEMGYTARAWMHVYNYEKKVPFYSVRTTIGDLEIVEEINNGYFYFASSGDELLEVIYDKNVLFGNSTSLQVPLVFKELGIKEVLRKEQYDENLLPSAFGVLERKLKDKVVINSMIGFSKEKGLINNNINTLKKDEYIISKKEEADLIVEELVSEIKTKTSNKLFDKYCEQNYLDNVLRGGYPLVFENKDGKVVYHIYSRKHGDLERDYNFFVLEAKKYSQGNGNFRDVAQNRRNDVIFHPEIEDFNLSMFVNLIQADGNNPLVVKGTRFKFEGDPSILDGVNEELKEFILNNYFTPGEILEKLKDKNVNEDEFVSKILYHSSQHEQAEFGEGYWIDHWTYLMDLVDTYKEIYPDKLQKTLFEKFEYKIYDSHAYVKPRKEKYKLYKGKVRQIAAVGESHEKLKIIQERGHNYLTDRNGNIYKTNMFEKLLLLAVNKFATLDPYGMGLEMEANKPGWNDALNGLPALFGSGMSETFELKRLINFMYEELKKYNKDIEVFEELQEFIQKIKVELENYFNDNDQFIYWDNVSNAKEEYRSKVFYSITGNKKKISKVELLAILKKMIKKLDEGIERAKNYGKGIYPTFFTYELVDYEVIDGVIIPKKFEVNVLPYFLEGIVRAFKVIDKDEKKKLYDFVKNSNIYDKKLKMYKTSESILNQPYSIGRIRAFTPGWLENESVFMHMEFKYLLELIKSDMLEEFYEDIKTALPPYMDYKVYGRSILENSSFIVSSANSNPNLHGQGFYARLSGSTAEFLSMWKYMFIGDKLFTLENNELTFTFEPKINKEFFENGVIEFKLFSKTKVKYVNPQLKEKIGRIEVFVDGKKFEIHGNKIKGELAHKLRNKKIDEVICYFE
As for B1, the Km was found to be 1570 ± 200 µM, the catalytic constant (kcat) turned out to be 7.61 ± 0.66 s⁻¹ and the kcat/Km worked out at 4850 M⁻¹ s⁻¹.
